In paper PMC11811200:

Substrate: Oc1cc(O)c2c(c1)O[C@H](c1ccc(O)c(O)c1)[C@@H](O)C2
Assay: purified protein
Settings: 100 mM acetate buffer pH 5.0, 28 °C, 5-300 μM substrate

B1: SmLAC1 (recombinant MBP-SmLAC1) (Salvia miltiorrhiza) (protein)
chain: MERSLMFSAWVLALLVCLSSFASAAIVEHTFHVKNLTVNKLCRNQVITAVNGSLPGPTLRVHEGDTLVVHVFNKSPYNLTIHWHGIFQILSGWADGPEFATQCPIRPGQSYTYRFNITGQEGTLWWHAHVGWLRATVYGALVIRPRSGHSFPFPKPHREIPIVLGEWWNANVIDVENQALATGAAPNLSDAYTINGHPGNLYPCSSNDTFRLTVVHGKTYLLRIINAALNNQLFFKIANHNLTVVAVDASYTNPYTTDVVLVAPGQTTDVLLTADQTPARYYMAASAYQSAAGVPFDNTTTTGIVAYSGTTPSAPIMPLLPAFNDTPTAHRFFSNLTALVSSRFWAPVPRHVDERMFVTIGLGLSACDLPQCQGPFGLKLAASMNNASFQFPTRLSMLEAFFRGVGGIYTADFPDNPPVRFDYTNSSNSLNQALLNTTKSTKVKKVRFNSTVEVVLQNTAFLGVENHPIHLHGFNFYVLAQGFGNYNPALDTRKFNFVNPQERNTIGVPVGGWAVIRFRANNPGVWLIHCHLDVHLPWGLATAFVVENGPTPATTLPPPPADFPKC
- Km: 21.2 µM
